Paper PMC7505474, “Toll-like receptor 4-mediated inflammation triggered by extracellular IFI16 is enhanced by lipopolysaccharide binding” (PLoS Pathogens, 2020)

How the values were obtained:
[1] = In vitro pull-down assay with biotin-LPS-EB and streptavidin beads; assay type: binding, E. coli O111:B4; conditions: 3 μg recombinant protein; 10 μg biotin-LPS-EB
Experimental: Biotin-labeled LPS-EB (10 μg) was incubated with 30 μl of streptavidin sepharose high performance beads (GE Healthcare) for 3 h at 4°C. After a washing step, 3 μg of recombinant IFI16, PYRIN, HINA, HINB, IFI16ΔHINB, or GST were added and incubated O/N at 4°C. After five washes with 1X PBS with 0.25% Triton X-100 (Sigma-Aldrich), samples were boiled in sample buffer containing SDS and β-mercaptoethanol and centrifuged. Supernatants were separated on a 7.5% or 12% SDS-polyacrylamide gel (Bio-Rad). Gels were stained with Coomassie brilliant blue (Serva Electrophoresis GmbH) for protein visualization.

[2] = system: gram-negative bacteria (E. coli, Klebsiella pneumoniae); test: Whole cell ELISA on formalin-fixed gram-negative bacteria; assay type: binding; conditions: formalin-fixed bacteria as solid phase
Experimental: (§1) For whole-cell ELISA, different strains of bacteria (i.e., gram-positive: Staphylococcus aureus, Staphylococcus epidermidis and Streptococcus pyogenes; gram-negative: Escherichia coli and Klebsiella pneumonia) were grown in LB medium without antibiotics and, after washing with 1X PBS, fixed in 0.5% formalin O/N at 4°C. Subsequently, the bacteria were diluted to an OD600 of 0.5 and were used to coat microtiter plates O/N at 37°C. After blocking, increasing concentrations of IFI16 were added to the wells and incubated for 2 h at RT. Anti-IFI16 antibodies against the N-terminus of the protein and HRP-labelled anti-rabbit IgG were then added as primary and secondary antibody, respectively, and binding was detected as described above.

[3] = system: gram-positive bacteria (Staphylococcus aureus, Staphylococcus epidermidis, Streptococcus pyogenes); test: Whole cell ELISA on formalin-fixed gram-positive bacteria; assay type: binding; conditions: formalin-fixed bacteria as solid phase
Experimental: as §1

TLR4 = molecular target: T1, TLR4 (Homo sapiens, UniProt O00206); test: SPR, IFI16 over immobilized TLR4; assay type: binding; conditions: IFI16 31.25–1,000 nM over immobilized TLR4; read-out: equilibrium dissociation constant (KD)
T1 construct: purchased R&D Systems 478-TR-050
T1 sequence (O00206 24-631 limits assumed): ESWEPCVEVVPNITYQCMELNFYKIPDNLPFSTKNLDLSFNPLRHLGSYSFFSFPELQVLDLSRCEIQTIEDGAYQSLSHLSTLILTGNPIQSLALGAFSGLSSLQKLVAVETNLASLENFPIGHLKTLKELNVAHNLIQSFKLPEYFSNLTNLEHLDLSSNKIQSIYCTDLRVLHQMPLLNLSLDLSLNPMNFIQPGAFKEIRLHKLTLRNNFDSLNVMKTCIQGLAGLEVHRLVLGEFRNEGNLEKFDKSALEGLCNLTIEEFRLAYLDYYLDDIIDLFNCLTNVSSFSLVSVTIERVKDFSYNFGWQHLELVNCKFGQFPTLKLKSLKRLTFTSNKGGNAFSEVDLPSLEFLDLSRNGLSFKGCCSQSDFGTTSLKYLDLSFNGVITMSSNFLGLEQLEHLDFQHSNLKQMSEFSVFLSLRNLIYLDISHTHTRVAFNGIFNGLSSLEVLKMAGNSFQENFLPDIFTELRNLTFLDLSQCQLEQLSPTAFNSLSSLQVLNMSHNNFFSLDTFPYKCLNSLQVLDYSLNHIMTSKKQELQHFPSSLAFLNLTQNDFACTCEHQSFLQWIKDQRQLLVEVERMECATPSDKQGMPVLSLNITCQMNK
Experimental: The Biacore X100 (GE Healthcare) instrument was used for real-time binding interaction experiments. Recombinant TLR4 or TLR4/MD2 complex was covalently immobilized onto the surface of sensor CM5 (cat # BR100012, GE Healthcare) chips via amine coupling. TLR4 was diluted to a concentration of 10 μg/ml in 10 mM sodium acetate at pH 4.0, while TLR4/MD2 complex was diluted to a concentration of 20 μg/ml in the same buffer. Both proteins were injected on CM5 chips at a flow rate of 10 μl/min, upon activation of the carboxyl groups on the sensor surface with 7-min injection of a mixture of 0.2 M EDC and 0.05 M NHS. The remaining esters were blocked with 7-min injection of ethanolamine. Taking into account the ligands (TLR4 or TLR4/MD2) and analytes (IFI16, LPS-EB or IFI16/LPS-EB) molecular weights (MW) of 70 or 90 kDa, and 90, 10 or 100 kDa respectively, the appropriate ligand density (RL) on the chip was calculated according to the following equation: RL = (ligand MW/analyte MW) × Rmax × (1/Sm), where Rmax is the maximum binding signal and Sm corresponds to the binding stoichiometry. The target capture level of the TLR4 or TLR4/MD2 was of 596.0 or 1,223.9 response units (RUs), respectively. […]

786-O cells [4] = test: qRT-PCR of proinflammatory cytokine mRNA in 786-O cells; assay type: cell-based, human; conditions: 24 h, IFI16 25 μg/ml, over mock-treated cells
Experimental: (§2) For treatments, cells were stimulated in complete medium with endotoxin-free IFI16 (25 μg/ml), endotoxin-free IFI16ΔHINB (25 μg/ml), MPLA, DPLA, LPS-F583, LPS-EB, LPS-RS, alone or pre-complexed by O/N incubation at 4°C, unless specified otherwise. Additionally, cells were stimulated with supernatants of untreated or UVB-treated U2OS or U2OS-IFI16^-/- cells alone or preincubated O/N at 4°C with LPS-EB, or LPS-RS. LPS variants or lipid A moieties were used at a concentration of 10 ng/ml. All treatments were carried out at 37°C and 5% CO2.
(§3) Quantitative real-time PCR (qRT-PCR) was performed on a CFX96 Real-Time PCR Detection System (Bio-Rad) as previously described. Total RNA was extracted using TRI Reagent (Sigma-Aldrich), and 1 μg was retrotranscribed using an iScript cDNA Synthesis Kit (Bio-Rad). Reverse-transcribed cDNAs were amplified in duplicate using SsoAdvanced Universal SYBR Green Supermix (Bio-Rad). The glyceraldehyde 3-phosphate dehydrogenase (GAPDH) gene was used as housekeeping gene to normalize for variations in cDNA levels. The relative normalized expression after stimulation as compared to control was calculated as fold change = 2 ^-Δ(ΔCT) where ΔCT = CTtarget—CTGADPH and Δ(ΔCT) = ΔCTstimulated - ΔCTcontrol. The primer sequences are available upon request.

THP-1 cells = test: qRT-PCR of proinflammatory cytokine mRNA in THP-1 cells; assay type: cell-based, human; conditions: 24 h, IFI16 25 μg/ml, over mock-treated cells
Experimental: as §2, §3

786-O cells [5] = test: Cytokine release by ELISA in 786-O culture supernatants; assay type: cell-based, human; conditions: 24 h post-treatment, 25 μg/ml, alone or complexed with LPS
Experimental: as §2
Cytokines secreted in culture supernatants after treatments were analyzed using human IL-6 DuoSet ELISA and human IL-8 DuoSet ELISA (all from R&D Systems), human TNF-α Uncoated ELISA and human IL-1β Uncoated ELISA (Thermo Fisher Scientific) according to the manufacturer’s instructions. Absorbance was measured using a Spark multimode microplate reader (Tecan).

NF-κB [6] = test: ELISA-based transcription factor binding assay, 786-O nuclear extracts; assay type: cell-based, human; conditions: 2 h, IFI16 25 μg/ml, LPS-EB 10 ng/ml
Experimental: (§4) Nuclear extracts were prepared using NE-PER Nuclear and Cytoplasmic Extraction Reagents (Thermo Fisher Scientific), according to the manufacturer’s instructions. NF-κB binding activity to a DNA probe containing its binding consensus sequence was measured by Universal Transcription Factor Assay Colorimetric kit (Merck Millipore). […] The following biotinylated oligonucleotides were used: sense (biotin): 5’-[…]-3’; antisense: 5’-[…]-3’.

NF-κB [7] = test: ELISA-based transcription factor binding assay, THP-1 nuclear extracts; assay type: cell-based, human; conditions: 2 h, IFI16 25 μg/ml, LPS-EB 10 ng/ml
Experimental: as §4

TLR4/MD2 receptor [8] = molecular target: T2, TLR4/MD2 receptor (Homo sapiens, UniProt O00206+Q9Y6Y9); test: SPR, analytes over immobilized TLR4/MD2; assay type: binding; design: purchased R&D Systems 3146-TM-050/CF
Experimental: The Biacore X100 (GE Healthcare) instrument was used for real-time binding interaction experiments. Recombinant TLR4 or TLR4/MD2 complex was covalently immobilized onto the surface of sensor CM5 (cat # BR100012, GE Healthcare) chips via amine coupling. TLR4 was diluted to a concentration of 10 μg/ml in 10 mM sodium acetate at pH 4.0, while TLR4/MD2 complex was diluted to a concentration of 20 μg/ml in the same buffer. Both proteins were injected on CM5 chips at a flow rate of 10 μl/min, upon activation of the carboxyl groups on the sensor surface with 7-min injection of a mixture of 0.2 M EDC and 0.05 M NHS. The remaining esters were blocked with 7-min injection of ethanolamine. Taking into account the ligands (TLR4 or TLR4/MD2) and analytes (IFI16, LPS-EB or IFI16/LPS-EB) molecular weights (MW) of 70 or 90 kDa, and 90, 10 or 100 kDa respectively, the appropriate ligand density (RL) on the chip was calculated according to the following equation: RL = (ligand MW/analyte MW) × Rmax × (1/Sm), where Rmax is the maximum binding signal and Sm corresponds to the binding stoichiometry. The target capture level of the TLR4 or TLR4/MD2 was of 596.0 or 1,223.9 response units (RUs), respectively. […] Increasing concentrations of endotoxin-free IFI16, LPS-EB or IFI16/LPS-EB complex were flowed over the CM5 sensor chip coated with TLR4 or TLR4/MD2 at a flow rate of 30 μl/min at 25°C with an association time of 120 s for IFI16 alone and the IFI16/LPS-EB complex, and 180 s for LPS-EB, and a dissociation phase of 180 s for IFI16 and IFI16/LPS-EB complex or 600 s for LPS-EB. A single regeneration step with 50 mM NaOH was performed following each analytic cycle. All the analytes tested were diluted in the HBS-EP+ buffer (GE Healthcare). […]
Target sequence in this assay (O00206 24-631 limits assumed): as above
Target sequence in this assay (Q9Y6Y9 17-160 limits assumed): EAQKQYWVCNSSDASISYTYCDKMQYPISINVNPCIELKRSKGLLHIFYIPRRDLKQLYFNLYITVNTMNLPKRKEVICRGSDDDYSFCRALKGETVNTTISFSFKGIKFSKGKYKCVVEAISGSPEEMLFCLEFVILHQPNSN

TLR4/MD2 receptor [9] = molecular target: T2, TLR4/MD2 receptor; test: Co-immunoprecipitation with anti-TLR4 antibody from treated 786-O cells; assay type: cell-based; design: endogenous in cells; host or cells: 786-O; conditions: 786-O cells stimulated 1 h; extracts untreated or DNase I-treated
Experimental: Co-immunoprecipitation of TLR4 with interacting proteins was performed using the Dynabeads Protein G Immunoprecipitation Kit (ThermoFisher), according to the manufacturer’s instructions with minor modifications. Briefly, after lysis of treated cells, 20 μg of total cell extracts were kept as the input control, while 90 μg of total cell extracts were incubated for 1 h at RT with 2.5 μg of anti-TLR4 antibody previously conjugated with magnetic beads. The resulting complexes were then washed, eluted, denatured, and subjected to Western blotting as described above. For DNase-treated cell extracts, DNase I (Sigma Aldrich) was added at a 1:10 dilution and incubated for 15 min at RT. Images were acquired, and densitometry of the bands was performed using Quantity One software (version 4.6.9, Bio-Rad). Densitometry values were normalized using the corresponding loading controls.
Target sequence in this assay (O00206 24-839): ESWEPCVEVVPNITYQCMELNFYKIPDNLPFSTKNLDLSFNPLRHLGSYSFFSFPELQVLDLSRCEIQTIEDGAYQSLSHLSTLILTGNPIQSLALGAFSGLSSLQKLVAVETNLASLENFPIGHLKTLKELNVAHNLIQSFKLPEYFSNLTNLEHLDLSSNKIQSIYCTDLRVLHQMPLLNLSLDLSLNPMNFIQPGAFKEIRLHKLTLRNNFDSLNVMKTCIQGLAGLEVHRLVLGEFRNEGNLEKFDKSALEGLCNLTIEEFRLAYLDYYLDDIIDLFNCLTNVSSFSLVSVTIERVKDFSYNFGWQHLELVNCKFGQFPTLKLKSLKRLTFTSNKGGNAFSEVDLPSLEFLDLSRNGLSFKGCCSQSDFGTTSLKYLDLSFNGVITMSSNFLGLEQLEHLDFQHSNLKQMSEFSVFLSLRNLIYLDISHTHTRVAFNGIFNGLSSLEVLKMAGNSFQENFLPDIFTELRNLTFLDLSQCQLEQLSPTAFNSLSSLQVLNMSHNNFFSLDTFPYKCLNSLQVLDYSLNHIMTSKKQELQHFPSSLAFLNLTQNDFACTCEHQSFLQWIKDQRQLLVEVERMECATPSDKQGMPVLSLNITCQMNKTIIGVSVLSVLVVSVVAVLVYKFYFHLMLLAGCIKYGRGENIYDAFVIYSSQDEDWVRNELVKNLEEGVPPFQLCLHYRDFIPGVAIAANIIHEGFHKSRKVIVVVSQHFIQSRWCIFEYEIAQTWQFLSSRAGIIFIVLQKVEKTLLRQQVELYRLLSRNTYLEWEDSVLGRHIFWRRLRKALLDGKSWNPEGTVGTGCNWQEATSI
Target sequence in this assay (Q9Y6Y9 17-160 limits assumed): as the sequence (Q9Y6Y9 17-160 limits assumed) above

B1: IFI16: human recombinant IFI16 protein, endotoxin-free (protein)
chain: MGKKYKNIVLLKGLEVINDYHFRMVKSLLSNDLKLNLKMREEYDKIQIADLMEEKFRGDAGLGKLIKIFEDIPTLEDLAETLKKEKLKVKGPALSRKRKKEVDATSPAPSTSSTVKTEGAEATPGAQKRKKSTKEKAGPKGSKVSEEQTQPPSPAGAGMSTAMGRSPSPKTSLSAPPNSSSTENPKTVAKCQVTPRRNVLQKRPVIVKVLSTTKPFEYETPEMEKKIMFHATVATQTQFFHVKVLNTSLKEKFNGKKIIIISDYLEYDSLLEVNEESTVSEAGPNQTFEVPNKIINRAKETLKIDILHKQASGNIVYGVFMLHKKTVNQKTTIYEIQDDRGKMDVVGTGQCHNIPCEEGDKLQLFCFRLRKKNQMSKLISEMHSFIQIKKKTNPRNNDPKSMKLPQEQRQLPYPSEASTTFPESHLRTPQMPPTTPSSSFFTKKSEDTISKMNDFMRMQILKEGSHFPGPFMTSIGPAESHPHTPQMPPSTPSSSFLTTLKPRLKTEPEEVSIEDSAQSDLKEVMVLNATESFVYEPKEQKKMFHATVATENEVFRVKVFNIDLKEKFTPKKIIAIANYVCRNGFLEVYPFTLVADVNADRNMEIPKGLIRSASVTPKINQLCSQTKGSFVNGVFEVHKKNVRGEFTYYEIQDNTGKMEVVVHGRLTTINCEEGDKLKLTCFELAPKSGNTGELRSVIHSHIKVIKTRKNKKDILNPDSSMETSPDFFF
Pull-down by biotin-LPS-EB (Coomassie band) [1]: readily detect a highly reproducible ~100-kDa band
IFI16 binding to surface of gram-negative bacteria [2]: strongly associated with the surface of both gram-negative bacteria species
IFI16 binding to gram-positive bacteria [3]: no IFI16 binding could be detected
Kd (TLR4): 130 nM
IL-1β gene expression fold induction (786-O cells [4]): 13 fold
IL-1β gene expression fold induction (THP-1 cells): 72 fold
IL-1β release (786-O cells [5]): neither IFI16 nor IFI16ΔHINB per se or after forming a complex with LPS induced IL-1β release
NF-κB binding activity fold induction vs untreated cells (NF-κB [6]): 2.2 fold
NF-κB binding activity fold induction vs untreated cells (NF-κB [7]): 2.4 fold
dissociation rate constant (Kd) (TLR4/MD2 receptor [8]): 0.00614 s⁻¹
Ka (TLR4/MD2 receptor [8]; association rate constant): 9070 M⁻¹ s⁻¹
dissociation rate constant (koff) (TLR4/MD2 receptor [8]; dissociation rate constant): 0.00614 s⁻¹
Rmax (TLR4/MD2 receptor [8]; maximum response): 26.09 RU
Kd (TLR4/MD2 receptor [8]; text / Fig 8C legend, read-out: equilibrium dissociation constant (KD)): 680 nM
Co-immunoprecipitation with TLR4/MD2 (TLR4/MD2 receptor [9]): co-immunoprecipitated with TLR4/MD2 receptor
